Earlier results in PMC9958082.

Biological target: E-cadherin (Homo sapiens) (UniProt P12830)
Details: cited from earlier work

UniProt P12830, sequence (P12830 155-709): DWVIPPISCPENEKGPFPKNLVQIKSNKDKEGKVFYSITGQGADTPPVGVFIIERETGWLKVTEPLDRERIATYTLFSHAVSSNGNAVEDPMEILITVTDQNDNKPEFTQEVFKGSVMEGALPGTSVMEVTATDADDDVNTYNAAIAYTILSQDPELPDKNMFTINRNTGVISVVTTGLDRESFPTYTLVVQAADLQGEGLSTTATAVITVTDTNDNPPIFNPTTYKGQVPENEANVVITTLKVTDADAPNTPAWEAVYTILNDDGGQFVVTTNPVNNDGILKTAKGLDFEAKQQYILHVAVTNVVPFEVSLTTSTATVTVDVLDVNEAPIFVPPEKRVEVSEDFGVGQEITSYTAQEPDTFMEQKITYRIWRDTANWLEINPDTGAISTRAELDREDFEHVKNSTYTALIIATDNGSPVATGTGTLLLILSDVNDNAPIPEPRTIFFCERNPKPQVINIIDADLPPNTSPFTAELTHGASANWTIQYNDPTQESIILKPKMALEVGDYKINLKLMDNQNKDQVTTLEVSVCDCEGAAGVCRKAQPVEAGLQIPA

For “HA (hemagglutinin complex) (from UniProt P46085)”, which Kd is on record?
The Kd was 2300 nM.
